According to patent CN117062835A (ONCORIS PONS, dated 2023):

Legend:
加His标签的重组人类CD163(R&D …) [1] = target: T1, 加His标签的重组人类CD163(R&D Systems，编号1607-CD-050)蛋白 (human, UniProt Q86VB7 46-1050); experiment: ELISA EC50 ratio; upper end of the range, tied to V1 through the lowest EC50 of Table 7
T1 construct: Bought recombinant protein coated on ELISA plates; also called 重组CD163蛋白; huCD163; not shown: His tag

人类CD163蛋白(生物素化) = target: T2, 人类CD163蛋白(生物素化) (human, UniProt Q86VB7 46-1050, limits assumed, biotinylated (sites not given)); experiment: BLI, b-huCD163 on SA biosensor, four antibody concentrations
T2 construct: also called b-huCD163; 生物素标记的人类CD163
T2 sequence (Q86VB7 46-1050 limits assumed): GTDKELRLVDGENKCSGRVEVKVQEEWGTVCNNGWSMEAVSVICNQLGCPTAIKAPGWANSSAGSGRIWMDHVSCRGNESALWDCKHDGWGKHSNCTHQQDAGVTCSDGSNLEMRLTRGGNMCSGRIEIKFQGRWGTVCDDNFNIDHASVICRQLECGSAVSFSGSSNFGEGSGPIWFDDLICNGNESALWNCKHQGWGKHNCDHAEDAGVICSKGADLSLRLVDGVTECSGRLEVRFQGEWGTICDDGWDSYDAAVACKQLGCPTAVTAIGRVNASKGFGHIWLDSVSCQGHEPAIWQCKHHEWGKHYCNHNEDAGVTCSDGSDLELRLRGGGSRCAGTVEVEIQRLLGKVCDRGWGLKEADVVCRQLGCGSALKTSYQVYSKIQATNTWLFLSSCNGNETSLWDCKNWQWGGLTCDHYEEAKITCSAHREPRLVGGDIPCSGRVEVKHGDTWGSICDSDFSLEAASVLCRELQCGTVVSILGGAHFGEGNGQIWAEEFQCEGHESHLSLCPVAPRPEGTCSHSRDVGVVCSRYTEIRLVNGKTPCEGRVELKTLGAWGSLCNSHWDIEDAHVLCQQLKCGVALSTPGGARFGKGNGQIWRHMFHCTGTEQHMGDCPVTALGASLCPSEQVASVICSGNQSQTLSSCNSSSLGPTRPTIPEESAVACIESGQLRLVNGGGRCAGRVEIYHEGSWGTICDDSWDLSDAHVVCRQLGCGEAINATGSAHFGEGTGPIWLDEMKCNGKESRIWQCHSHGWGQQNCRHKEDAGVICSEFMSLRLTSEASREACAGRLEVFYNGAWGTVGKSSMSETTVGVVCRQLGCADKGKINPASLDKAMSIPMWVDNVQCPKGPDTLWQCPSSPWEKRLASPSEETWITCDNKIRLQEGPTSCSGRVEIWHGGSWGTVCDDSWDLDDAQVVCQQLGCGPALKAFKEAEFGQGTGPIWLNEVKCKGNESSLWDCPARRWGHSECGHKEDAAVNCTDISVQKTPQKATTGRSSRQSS

加His标签的重组人类CD163(R&D …) [2] = target: T1, 加His标签的重组人类CD163(R&D …); experiment: ELISA EC50 ratio; lower end of the range, tied to V4 through the highest EC50 of Table 7

T1 sequence (Q86VB7 46-1050 limits assumed): as above

Binder | fold stronger binding than AB101 parental antibody (加His标签的重组人类CD163(R&D …) [1]) | fold increase of affinity against AB101 parental Ab (人类CD163蛋白(生物素化)) | fold stronger binding than AB101 parental antibody (加His标签的重组人类CD163(R&D …) [2])
变体1(V1) (antibody, V domains shown) VH: EVQLVESGGGVVQPGRSLRLSCAASGFTFSSYDMHWVRQAPGKGLEWVAVISEDGSNKYNADSVKGRFTISRDNSKNTLYLQMNSLRAEDTAVYYCARENVRPYYDFWSGYSSEYYYYGLDVWGQGTTVTVS VL: not shown | 45 fold |  | 
变体4(V4) (antibody, V domains shown, also called 克隆4) VH: EVQLVESGGGVVQPGRSLRLSCAASGFTFSSYVMHWVRQAPGKGLEWVAVISEDGSNKYNADSVKGRFTISRDNSKNTLYLQMNSLRAEDTAVYYCARENVRPYYDFWSGYSSEYYYYGLDVWGQGTTVTVSS VL: not shown |  | ~3760 fold | 27 fold
